US20130136748A1 (Ablynx, published 2013)
Residue numbers refer to the chain shown, from its start. In names and notes the source's numbering stands.

Legend:
hHER3 full length [1] = target: T1, hHER3 full length (human, UniProt P21860 20-1342); experiment: FACS competition with HRG1-β1-EGF, CHO-HER3
[2] = target: T2, human HER3-Fc (R&D Systems, 348-RB) (human, UniProt P21860 20-643); experiment: SPR, HER3-Fc captured by anti-Fc
T2 construct: Bought; also called hHER3-Fc; Fc-HER3; Fc part of the bought chimera not given, not described

[3] = target: T3, hHER3 ECD (human HER3 extracellular domain) (human, UniProt P21860 20-643); experiment: SPR off rate on HER3-ECD, periplasmic extract
T3 construct: also called recombinant HER3-ECD

[4] = target: T2, human HER3-Fc (R&D Systems, 348-RB); experiment: 18G11 competition alphascreen, periplasmic extract
hHER3 full length [5] = target: T1, hHER3 full length; experiment: cell-based or functional assay
[6] = target: T2, human HER3-Fc (R&D Systems, 348-RB); experiment: HRG competition alphascreen
hHER3 full length [7] = target: T1, hHER3 full length; experiment: cell-based or functional assay; remark: listed apart in the source
hHER3 full length [8] = target: T1, hHER3 full length; experiment: FACS, 400 nM, competitor 21B02-biotin
hHER3 full length [9] = target: T1, hHER3 full length; experiment: FACS, 400 nM, competitor 04F10-biotin
hHER3 full length [10] = target: T1, hHER3 full length; experiment: FACS, 400 nM, competitor 04C07-biotin
[11] = target: T3, hHER3 ECD (human HER3 extracellular …); experiment: ELISA, coated hHER3-ECD
hHER3 full length [12] = target: T1, hHER3 full length; experiment: FACS, 400 nM, competitor 23F05-biotin
hHER3 full length [13] = target: T1, hHER3 full length; experiment: cell-based or functional assay; remark: listed apart in the source
[14] = target: T4, cHER3ECD (Maccaca fascicularis HER3 extracellular domain) (Macaca fascicularis, UniProt P21860 20-643 (human entry)); experiment: ELISA, coated cHER3-ECD
T4 construct: also called cyno HER3ECD; cyno HER3-ECD
T4 chain: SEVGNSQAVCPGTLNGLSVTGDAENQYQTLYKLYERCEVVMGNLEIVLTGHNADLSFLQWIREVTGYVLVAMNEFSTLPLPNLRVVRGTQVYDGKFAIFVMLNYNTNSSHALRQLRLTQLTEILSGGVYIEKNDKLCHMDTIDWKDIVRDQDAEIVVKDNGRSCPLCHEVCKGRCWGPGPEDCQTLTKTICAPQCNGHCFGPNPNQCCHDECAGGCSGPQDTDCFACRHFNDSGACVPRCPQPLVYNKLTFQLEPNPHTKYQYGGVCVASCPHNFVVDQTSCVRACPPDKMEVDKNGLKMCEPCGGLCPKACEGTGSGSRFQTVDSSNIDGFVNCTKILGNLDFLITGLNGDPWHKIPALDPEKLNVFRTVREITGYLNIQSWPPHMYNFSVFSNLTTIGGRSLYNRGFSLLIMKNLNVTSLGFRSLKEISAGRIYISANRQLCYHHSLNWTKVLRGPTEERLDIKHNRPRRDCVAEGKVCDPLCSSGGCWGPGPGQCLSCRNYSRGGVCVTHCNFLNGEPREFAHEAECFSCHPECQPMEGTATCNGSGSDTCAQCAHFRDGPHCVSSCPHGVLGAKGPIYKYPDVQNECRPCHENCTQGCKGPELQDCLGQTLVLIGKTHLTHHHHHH

hHER3 full length [15] = target: T1, hHER3 full length; experiment: FACS, 400 nM, competitor 17C08-biotin
hHER3 full length [16] = target: T1, hHER3 full length; experiment: FACS, 400 nM, competitor 18E08-biotin

Q: For Control MAb1 (antibody), which IC50 (hHER3 full length [1]) is on record?
A: 9.4 nM

Q: Control Fab2 was tested. Which Kd [2] did it give?
A: 2.77 nM

Q: What about the kon [2] of the same molecule?
A: 93400 M⁻¹ s⁻¹

Q: Which Kd [2] does the source give for Control Fab1 here?
A: 0.57 nM

Q: What about the kon [2] of the same molecule?
A: 703000 M⁻¹ s⁻¹

Q: How did the IC50 (hHER3 full length [1]) turn out when Control MAb2 (antibody) was run?
A: 67.2 nM

B1: HER3MS00068 (VHH)
VHH: EVQLVESGGGLVQPGGSLRLSCAASGTLFKINAMGWYRQAPGKRRELVALITSSDTTDYAESVEGRFTISRDNTWNAVYLQMNSLKPEDTAVYYCHSDHYSGGVPEKRVIMYGQGTLVTVSS
notes: 18G11 M99G
Q: For B1, which koff [3] is on record?
A: 0.001 s⁻¹

Q: What about the “% inhibition” value [4] of the same molecule?
A: 84.4%

Q: What about the “IC50 pHER3 blocking, HRG stimulated MCF7” value (hHER3 full length [5]) of the same molecule?
A: 8.88e-08 M

B2: HER3MS00069 (VHH)
VHH: B1 VHH with G102L
notes: 18G11 M99L
Q: What does the source list for B2?
A: koff [3]: 0.00081 s⁻¹; % inhibition [4]: 83%; IC50 pHER3 blocking, HRG stimulated MCF7 (hHER3 full length [5]): 5.27e-08 M

B3: HER3MS00070 (VHH)
VHH: B1 VHH with G102I
notes: 18G11 M99I
Q: With B3 as the molecule, how does the koff [3] read?
A: 0.00064 s⁻¹

Q: What about the “% inhibition” value [4] of the same molecule?
A: 82.2%

Q: What about the “IC50 pHER3 blocking, HRG stimulated MCF7” value (hHER3 full length [5]) of the same molecule?
A: 3.78e-08 M

B4: HER3MS00071 (VHH)
VHH: B1 VHH with G102V
notes: 18G11 M99V
Q: What does the source list for B4?
A: koff [3]: 0.00084 s⁻¹; % inhibition [4]: 80.9%; IC50 pHER3 blocking, HRG stimulated MCF7 (hHER3 full length [5]): 7.35e-08 M

B5: HER3MS00072 (VHH)
VHH: B1 VHH with G102M, M111L
notes: 18G11 M102L
Q: What does the source list for B5?
A: koff [3]: 0.00082 s⁻¹; % inhibition [4]: 88%; IC50 pHER3 blocking, HRG stimulated MCF7 (hHER3 full length [5]): 5.76e-08 M

B6: HER3MS00073 (VHH)
VHH: B1 VHH with G102M, M111D
notes: 18G11 M102D
Q: How did the koff [3] turn out when B6 was run?
A: 0.00083 s⁻¹

Q: What about the “% inhibition” value [4] of the same molecule?
A: 84.4%

Q: And the “IC50 pHER3 blocking, HRG stimulated MCF7” value (hHER3 full length [5])?
A: 8.75e-08 M

B7: HER3MS00077 (VHH)
VHH: EVQLVESGGGLVQPGGSLRLSCAASGSIGGLNAMAWYRQAPGKERELVAGIFGVGSTRYADSVKGRFTISRDNSKNTVFLQMNSLRSEDTAVYYCRMSSVTRGSSDYWGQGTLVTVSS
notes: 17B05 basic + I73N; also called HER3MS0077
Q: With B7 as the molecule, how does the IC50 [6] read?
A: 0.753 nM

B8: HER3MS00078 (VHH)
VHH: B7 VHH with N73I, F79Y
notes: 17B05 basic + F79Y; also called HER3MS0078
Q: For B8, which IC50 [6] is on record?
A: 0.811 nM

B9: HER3MS00079 (VHH)
VHH: B7 VHH with N73I, R96A
notes: also called HER3MS0079
Q: Which IC50 [6] does the source give for B9 here?
A: 3.08 nM

B10: HER3MS00081 (VHH)
VHH: B7 VHH with R96A
notes: also called HER3MS0081
Q: Which IC50 [6] does the source give for B10 here?
A: 5.89 nM

B11: HER3MS00082 (VHH)
VHH: B7 VHH with N73I, F79Y, R96A
notes: also called HER3MS0082
Q: How did the IC50 [6] turn out when B11 was run?
A: 4.05 nM

B12: 05A09 (VHH)
VHH: EVQLVESGGGLVQAGGSLRLSCAASGFTFDDYAIGWFRQAPGKEREGVSCISSSDGSTVYADSVKGRFTISSDNAKNTVYLQMNSLKPEDTAVYYCAAERRRGYSDLCRFYYGMDYWGKGTQVTVSS
Q: What does the source list for B12?
A: IC50, HRG1-β1 induced pAkt, MCF-7 (hHER3 full length [7]): 2.9e-07 M; inhibition of HRG1-β1 induced pERK1/2, MCF-7 (hHER3 full length [7]): < 50 % inhibition; % competition (hHER3 full length [8]): 22%; % competition (hHER3 full length [9]): 0%; % competition (hHER3 full length [10]): 0%; EC50 [11]: 1.45 nM; % competition (hHER3 full length [12]): 10%; IC50, HRG1-β1 induced pHER3, MCF-7 (hHER3 full length [13]): 9.12e-08 M; IC50, HRG1-β1 induced pHER3, MDA-MB468 (hHER3 full length [13]): 1.28e-07 M; EC50 [14]: 1.3 nM; % competition (hHER3 full length [15]): 48%; % competition (hHER3 full length [16]): 78%

B13: 34A04 (VHH)
VHH: EVQLVESGGGLVQAGGSLRLSCAASGFTFDDYTIGWFRQAPGKEREEISCISNNDGSTYYTNSVKGRFTISSDNAKNTVYLQMNSLKPEDTAVYYCAASPHGCWYDLIPLQADFGSWGQGTQVTVSS
Q: How did the “IC50, HRG1-β1 induced pAkt, MCF-7” value (hHER3 full length [7]) turn out when B13 was run?
A: 6.26e-08 M

Q: What about the “IC50, HRG1-β1 induced pERK1/2, MCF-7” value (hHER3 full length [7]) of the same molecule?
A: 3.13e-07 M

Q: What about the “% competition” value (hHER3 full length [8]) of the same molecule?
A: 99%

Q: And the “% competition” value (hHER3 full length [9])?
A: 3%

Q: What about the “% competition” value (hHER3 full length [10]) of the same molecule?
A: 22%

Q: And the EC50 [11]?
A: 0.57 nM

Q: And the “% competition” value (hHER3 full length [12])?
A: 97%

Q: And the “IC50, HRG1-β1 induced pHER3, MCF-7” value (hHER3 full length [13])?
A: 3.02e-08 M

Q: And the “IC50, HRG1-β1 induced pHER3, MDA-MB468” value (hHER3 full length [13])?
A: 2.2e-08 M

Q: And the Kd [2]?
A: 2.7 nM

Q: What about the kon [2] of the same molecule?
A: 2.63e+06 M⁻¹ s⁻¹

Q: What about the EC50 [14] of the same molecule?
A: 0.49 nM

Q: What about the “% competition” value (hHER3 full length [15]) of the same molecule?
A: 14%

Q: And the “% competition” value (hHER3 full length [16])?
A: 25%
